Measured values as given in US20220048991A1 (BIOND BIOLOGICS, published 2022).
Substitutions are numbered along the chain they refer to. Numbers in names are those of the source.

B1: 15G8-23 (humanized 15G8, VH2/Vk3) (antibody, human IgG4 S228P, kappa, V domains shown)
VH: DVQLQGSGPGLVKPSETLSLTCSVTGYSITSGYYWNWIRQFPGKKLEWMGYISYDGSNNYNPSLKNRITISRDTSKNQFSLKLSSVTAADTATYYCAHGYSYYYAMDAWGQGTTVTVSS
VL: DIQMTQSPSSLSASVGDRVTITCRTSQDISNYLNWYQQKPGKAVKLLISYTSRLHSGVPSRFSGSGSGTDYTLTISSLQPEDFATYYCQQGNTLPTFGQGTKLEIKR
notes: Humanized IgG4 (S228P, L235E), kappa
B2: humanized 15G8 VH4/Vk2 (antibody, IgG4, V domains shown)
VH: B1 VH with D1Q, F41P, K45G, I68V
VL: DIQMTQSPSSLSASVGDRVTITCRTSQDISNYLNWYQQKPGKAVKLLISYTSRLHSGVPSRFSGSGSGTDYTLTISSLQPEDFATYFCQQGNTLPTFGQGTKLEIK
notes: Humanized IgG4 (S228P, L235E), kappa; tested as supernatant of transiently transfected HEK EBNA cells
B3: humanized 15G8 VH2/Vk4 (antibody, IgG4, V domains shown)
VH: B1 VH
VL: B2 VL with V44P
notes: as for B2
B4: humanized 15G8 VH1/Vk4 (antibody, IgG4, V domains shown)
VH: B1 VH with S84N, T114S
VL: B2 VL with V44P
notes: as for B2
B5: 15G8-44 (humanized 15G8, VH4/Vk4) (antibody, IgG4, V domains shown)
VH: B1 VH with D1Q, F41P, K45G, I68V
VL: B2 VL with V44P
notes: as for B1
B6: humanized 15G8 VH1/Vk2 (antibody, IgG4, V domains shown)
VH: B1 VH with S84N, T114S
VL: B2 VL
notes: as for B2
B7: 15G8-53 (humanized 15G8, VH5/Vk3) (antibody, human IgG4 S228P, kappa, V domains shown)
VH: B1 VH with D1Q, S23T, F41P, K45G, M49I, I68V
VL: B1 VL
notes: as for B1
B8: 15G8-54 (humanized 15G8, VH5/Vk4) (antibody, IgG4, V domains shown)
VH: B1 VH with D1Q, S23T, F41P, K45G, M49I, I68V
VL: B2 VL with V44P
notes: as for B1
B9: humanized 15G8 VH1/Vk1 (antibody, IgG4, V domains shown)
VH: B1 VH with S84N, T114S
VL: B2 VL with P8T, P80Q
notes: as for B2
B10: humanized 15G8 VH2/Vk2 (antibody, IgG4, V domains shown)
VH: B1 VH
VL: B2 VL
notes: as for B2
B11: 15G8-32 (humanized 15G8, VH3/Vk2) (antibody, human IgG4 S228P, kappa, V domains shown)
VH: B1 VH with F41P, K45G
VL: B1 VL with Y87F
notes: as for B1
B12: humanized 15G8 VH2/Vk1 (antibody, IgG4, V domains shown)
VH: B1 VH
VL: B2 VL with P8T, P80Q
notes: as for B2
B13: 15G8-34 (humanized 15G8, VH3/Vk4) (antibody, IgG4, V domains shown)
VH: B1 VH with F41P, K45G
VL: B2 VL with V44P
notes: as for B1

The binders below were run against T1, recombinant ILT2 (human) (human, UniProt Q8NHL6 24-461) (assay: SPR (Biacore T200), HEK EBNA supernatants on recombinant ILT2 peptide).
T1 construct: also called recombinant ILT2 peptide; ILT2 protein
T1 sequence (Q8NHL6 24-461 limits assumed): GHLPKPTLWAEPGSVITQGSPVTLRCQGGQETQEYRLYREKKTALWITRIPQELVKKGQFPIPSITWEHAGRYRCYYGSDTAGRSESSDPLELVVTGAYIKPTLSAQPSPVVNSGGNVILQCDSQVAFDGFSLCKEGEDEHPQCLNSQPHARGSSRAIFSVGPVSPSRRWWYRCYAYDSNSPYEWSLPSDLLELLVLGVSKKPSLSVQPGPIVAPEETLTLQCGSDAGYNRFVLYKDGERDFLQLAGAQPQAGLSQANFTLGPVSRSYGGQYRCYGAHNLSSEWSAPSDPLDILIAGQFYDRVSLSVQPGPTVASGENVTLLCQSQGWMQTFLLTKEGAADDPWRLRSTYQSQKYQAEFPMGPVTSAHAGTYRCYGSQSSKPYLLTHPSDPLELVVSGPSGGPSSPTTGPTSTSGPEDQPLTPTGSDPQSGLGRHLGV
Experimental: (§1) During grafting of the 15G8 CDRs, five heavy chains and four kappa light chains were generated. These chains were designated VH1-5 and Vk1-4. By combining each heavy chain with each light chain twenty different resultant antibodies are possible. All twenty possible antibodies were transiently expressed in HEK EBNA cells, and the supernatants were tested for binding to recombinant ILT2 peptide using a Biacore T200. The chimeric 15G8 antibody was used as control.

Kd | koff | kon | Binder
8.31 nM | 0.0076 s⁻¹ | 915000 M⁻¹ s⁻¹ | B1
9.93 nM | 0.00685 s⁻¹ | 690000 M⁻¹ s⁻¹ | B2
14.2 nM | 0.00789 s⁻¹ | 554000 M⁻¹ s⁻¹ | B3
18.7 nM | 0.00854 s⁻¹ | 457000 M⁻¹ s⁻¹ | B4
13.5 nM | 0.00977 s⁻¹ | 724000 M⁻¹ s⁻¹ | B5
8.82 nM | 0.00678 s⁻¹ | 769000 M⁻¹ s⁻¹ | B6
10.6 nM | 0.0072 s⁻¹ | 682000 M⁻¹ s⁻¹ | B7
10.3 nM | 0.0117 s⁻¹ | 1.14e+06 M⁻¹ s⁻¹ | B8
8.77 nM | 0.00931 s⁻¹ | 1.06e+06 M⁻¹ s⁻¹ | B9
8.79 nM | 0.0066 s⁻¹ | 752000 M⁻¹ s⁻¹ | B10
8.19 nM | 0.00664 s⁻¹ | 811000 M⁻¹ s⁻¹ | B11
9.58 nM | 0.00728 s⁻¹ | 760000 M⁻¹ s⁻¹ | B12
12.6 nM | 0.00832 s⁻¹ | 661000 M⁻¹ s⁻¹ | B13

Each binder was assayed against T1, recombinant ILT2 (human) (assay: SPR (Biacore T200); KD relative to Control (chimeric 15G8)).
Experimental: as §1

Relative KD | Binder
0.66 | B1
0.79 | B2
1.13 | B3
1.48 | B4
1.07 | B5
0.7 | B6
0.84 | B7
0.82 | B8
0.7 | B9
0.7 | B10
0.65 | B11
0.76 | B12
1 | B13
